Data on two substances can be found in patent US20020081280A1.

For test [1], the target named is coxsackievirus and adenovirus receptor (CAR) on human cells (human) (UniProt P78310). In words: cell-based or functional assay.
Test [2] addresses cellular integrins on HUVEC cells. In words: 125I-Ad5lucRGD binding to HUVEC cells at 4 °C, penton base at 100 µg/ml; competitor Ad5lucRGD.

“And” between values parts separate entries of the source, which are not always exact repeats. Equal entries are not always repeated.

UniProt P78310, sequence (P78310 20-365): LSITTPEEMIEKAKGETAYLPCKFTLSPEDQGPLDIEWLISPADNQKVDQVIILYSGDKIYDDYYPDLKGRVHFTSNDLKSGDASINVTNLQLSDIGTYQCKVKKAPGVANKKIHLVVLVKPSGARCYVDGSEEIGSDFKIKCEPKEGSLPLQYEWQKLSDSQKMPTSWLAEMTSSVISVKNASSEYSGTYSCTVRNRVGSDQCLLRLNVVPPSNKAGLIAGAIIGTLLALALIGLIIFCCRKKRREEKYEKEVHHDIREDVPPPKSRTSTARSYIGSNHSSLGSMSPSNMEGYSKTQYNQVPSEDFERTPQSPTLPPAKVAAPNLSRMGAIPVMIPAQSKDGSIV

With “AdCMVLuc virions (E1-deleted Ad5 vector with unmodified wild-type fibers) (from UniProt P11818 1-581)”, in test [1], the blockade of luciferase gene transfer by knob competition, HeLa and SCCHN cell lines (FaDu, SCC-4, SCC-25) was over 90%; the gene transfer to SKOV3.ipl cells blocked by fiber knob is over 90%; the luciferase activity in 293 cells blocked by recombinant knob protein (100 µg/ml) is 85 to 93%; the luciferase activity in SKOV3.ipl cells blocked by excess fiber knob was 82% and 91%. Also, in test [1], the luciferase activity in ovarian cancer ascites cells blocked by excess fiber knob was determined as 90%; the reduction of luciferase activity in CaOV-3 cells by fiber knob blockade, dose 3x10^6 PFU came out at 55%; the reduction of luciferase activity in UCI-101 cells by the fiber knob block was 94% and 97%.

Turning to “recombinant human adenovirus serotype 2 penton base protein, expressed in Sf9 cells (from UniProt P03276 1-571)”, in test [2], the percent decrease of bound virus radioactivity came to 25%.
